This note sets out measurements from the supplement of paper PMC9170038.

The test system of the data set is MS2 coat protein. Nature of the data set: apparent KD of MS2 coat protein; designed switch direction (-1 OFF switch, 1 ON switch): 1; higher = weaker reporter binding. In outline: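 Designed RNA switches sharing common flanks were transcribed on Illumina chips by stalled E. coli RNA polymerase. They were titrated with SNAP-549-labelled MS2 coat protein, from 0.7 or 1.5 nM doubling to 3 µM, in Tris-HCl pH 7.5 buffer with KCl, MgCl2, BSA, DTT, tRNA and Tween-20. Titrations ran without input, with 200 uM small-molecule ligand, or with an oligonucleotide input. The apparent KD of each design is the median over its clusters, after curve-fitting of normalised cluster fluorescence.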

[1] abbreviates: input ligand: microRNA oligo, concentration not stated.
The mark [2] stands for this setting: Eterna round: R95, input ligand: FMN 200 uM.
The mark [3] stands for this setting: Eterna round: R95, input ligand: microRNA oligo, concentration not stated.
Where [4] appears, read: Eterna round: R95, input ligand: none.

For “GGGAGAGGUACAGGAUAUGGUGAGGAUCACCCACUAGAAGGGUGCACAUGUGAAUCGGACAUGAGGAUCACCCAUGUUGGGCGU (Eterna round: R96, puzzle: Same State NG 1)”, the “apparent KD of MS2 coat protein” value is, setting by setting: (input ligand: FMN 200 uM) 213 nM; under setting [1], 265 nM; (input ligand: none) 424 nM.
Turning to “CCGUAAUAUGGAGGAUAUGGAGCCUUAUUGGCUCCAGAAGGUCAUAACACAUGAGGAUCACCCAUGUCGGCGGUCAAUAGACCG [Eli NG1ss - 76] (Eterna round: R96, puzzle: Same State NG 1)”, the “apparent KD of MS2 coat protein” value (input ligand: FMN 200 uM) is 19.4 nM, the “apparent KD of MS2 coat protein” value under setting [1] was 74.9 nM and the “apparent KD of MS2 coat protein” value (input ligand: none) is 68.3 nM.
In the case of “UAUUUAAUCGUAGGAUAUAGAGUGAAAUUUGUACUAGAAGGACGUAACAUGAGGAUCACCCAUGUGGUAAGUGGGACAUAGUAU [JR_SSNG1_Sub037] (Eterna round: R96, puzzle: Same State NG 1)”, the “apparent KD of MS2 coat protein” value runs as follows: (input ligand: FMN 200 uM) 44.1 nM; under setting [1], 27 nM; (input ligand: none) 39.7 nM.
For the sequence “AGCCUGAGUCGAGGAUAUUAUGGAUCAAUUAAUACAUGAGGAUCACCCAUGUAAUUAAUUUAACAUGAGAAGGCGACUCAGGCA [SSNG2/10-A1] (Eterna round: R96, puzzle: Same State NG 2)”, the “apparent KD of MS2 coat protein” value came out at 7.72 nM (input ligand: FMN 200 uM), 5.43 nM under setting [1] and 8.66 nM (input ligand: none).
Turning to “UGGUACAUGGGAGGAUAUCUCAUGGUGACAUGAGGAUCACCCAUGUAGUUGGAGCCGAAAGGCAGAGAGAAGGCCCAUGUACCU [JL SSNG1 3.77] (Eterna round: R96, puzzle: Same State NG 2)”, the “apparent KD of MS2 coat protein” value came out at 69.2 nM (input ligand: FMN 200 uM), 65.7 nM under setting [1] and 96.3 nM (input ligand: none).
With “GGUGCCAAUAAAGCCUACAUGAGGAUCACCCAUGUAUGUAGGCAGGAUAUCGUUUGCAAAGCAAACGAGAAGGGCCGAGGCACC [Mat - Same State NG 3 - JL Mod - D55] (Eterna round: R96, puzzle: Same State NG 3)”, the “apparent KD of MS2 coat protein” value turned out to be 18 nM (input ligand: FMN 200 uM), 29.3 nM under setting [1] and 39.6 nM (input ligand: none).
For “GUUACAUGAGGAUCACCCAUGUAAGUGUGGGAGAAAGUGACUUAGGAUAUCUAAUAUUUAAAUUAAGAGAAGGAAGAUUGUUGU [JMF's solution 4] (Eterna round: R96, puzzle: Same State NG 3)”, the “apparent KD of MS2 coat protein” value came out at 86.8 nM (input ligand: FMN 200 uM), 64.3 nM under setting [1] and 81.6 nM (input ligand: none).
The corresponding values for “AAUUAAGAUUGAGGAUAUCACGUCGAAUAGACGUGAGAAGGCGAUCAUAACAUGAGGAUCACCCAUGUAUUACAUGAAUUAAUU [SSNG1/5-B1] (Eterna round: R96, puzzle: Same State NG 1)” are 30.2 nM, 31.9 nM and 32.3 nM.
Take “UGUUAUUAGACAGGAUAUUGAAUGUUAAGUAUUAACAUGAGGAUCACCCAUGUAUUUGAUUGGUACAAGAAGGGUCAUGUUCCU [JR_SSNG2_Sub016] (Eterna round: R96, puzzle: Same State NG 2)”: under setting [1], the “apparent KD of MS2 coat protein” value was 399 nM.
Regarding “AACUUACGACCACAGGAUAUACUGAGGCGGACAUGAGGAUCACCCAUGUAGGCAAAAUAAGGGCAGUAGAAGGGUGGUCUUUACA [Usbiraxe] (puzzle: Same State 2)”, the “apparent KD of MS2 coat protein” value was 18.4 nM under setting [2], 18.8 nM under setting [3] and 27.5 nM under setting [4].
Consider “UAGGAUCAACGAGGAUAUAAUAGGUUCUAUUCGUGAUAUUGCGUACAUGAGGAUCACCCAUGUUAUUAGAAGGCGUAUGGGUUU [JR_SSNG2_Sub085] (Eterna round: R96, puzzle: Same State NG 2)”, for which the “apparent KD of MS2 coat protein” value (input ligand: FMN 200 uM) worked out at 78.7 nM, the “apparent KD of MS2 coat protein” value under setting [1] is 69.9 nM and the “apparent KD of MS2 coat protein” value (input ligand: none) is 92.8 nM.
Turning to “CUCCUAUCGGGAGGAUAUGGUGCCUUGUUGGUGCUAGAAGGUCCAACAUGAGGAUCACCCAUGUGGGAGUGGUUGAGAGACCUC [SS NG10LRO13] (Eterna round: R96, puzzle: Same State NG 1)”, the “apparent KD of MS2 coat protein” value (input ligand: FMN 200 uM) stood at 131 nM, the “apparent KD of MS2 coat protein” value under setting [1] amounted to 105 nM and the “apparent KD of MS2 coat protein” value (input ligand: none) came out at 137 nM.
The matching figures for “ACUUGCGGCACAGGAUAUGGGUGCCUGUACAUGAGGAUCACCCAUGUUAAGGGACGGAUUACGAACCAGAAGGGUGAGGCGGGC [Aqube] (Eterna round: R96, puzzle: Same State NG 2)”: 1350 nM, 296 nM and 300 nM.
For “GAGAGAGGAUGAGGAUAUGCAGUAAUAAUGAUAGCAGAAGGCAUAGACAUGAGGAUCACCCAUGUGGGAAUAAUCCAGAGAGAG [Parity 1 - Jieux - Same State NG 1] (Eterna round: R96, puzzle: Same State NG 1)”, under setting [1], the “apparent KD of MS2 coat protein” value came out at 132 nM.
For “GGAGCCAAGGCAGGAUAUUCAACAUGAGGAUCACCCAUGUGGGUAAUAAAGGCCAGAAGGCCUUGGGAGAAGGGCCAUGGCUCG [Xeonanis - 13 mod13] (Eterna round: R96, puzzle: Same State NG 2)”, the “apparent KD of MS2 coat protein” value turned out to be 16.8 nM (input ligand: FMN 200 uM), 9.17 nM under setting [1] and 17.7 nM (input ligand: none).
For “CCGUAGAUGGAAGGAUAUGGAGCCUUAUUGGCUCCAGAAGGUUCAAUAACAUGAGGAUCACCCAUGUCGGCGGUCAAUAGACCG [Eli NG1ss - 80] (Eterna round: R96, puzzle: Same State NG 1)”, the “apparent KD of MS2 coat protein” value (input ligand: FMN 200 uM) came to 20.5 nM, the “apparent KD of MS2 coat protein” value under setting [1] came to 27.7 nM and the “apparent KD of MS2 coat protein” value (input ligand: none) stood at 44.9 nM.
“GCUAGAAUUAAAGCCAACAUGAGGAUCACCCAUGUAUGUUGGUAGGAUAUCGUUUGCUUUGCAAACGAGAAGGGCUAAACUAGC [JL SSNG3 1.06] (Eterna round: R96, puzzle: Same State NG 3)”: the “apparent KD of MS2 coat protein” value (input ligand: FMN 200 uM) worked out at 78.3 nM, the “apparent KD of MS2 coat protein” value under setting [1] was 58.5 nM and the “apparent KD of MS2 coat protein” value (input ligand: none) was found to be 73.1 nM.
Regarding “AGUCCAGCGAAAGCUGGACAGAAGCAUGUACAUGAGGAUCACCCAUGUUCAUGUACAAGCUUUUUGCUCGUCUUAAA [JL mod - D95 - 1] (puzzle: Sensor for hsa-mir-208a)”, the “apparent KD of MS2 coat protein” value is, setting by setting: under setting [2], 476 nM; under setting [3], 14.9 nM; under setting [4], 418 nM.
For “AUAUAACAUGAGGAUCACCCAUGUCUCUAAAGUCGAGGAUAUGGGCAGGUUAUAUCCGAACCAGAAGGCGGGUUAU [SS1 Teenbexe 8] (Eterna round: R96, puzzle: Same State 1)”, the “apparent KD of MS2 coat protein” value came to 1020 nM (input ligand: FMN 200 uM), 287 nM under setting [1] and 554 nM (input ligand: none).
For “UGGUACAUGGGAGGAUAUCAUGUAGAAACAUGAGGAUCACCCAUGUAGAUGGCCGGUAACCGGAAUGAGAAGGCCCAUGUACCU [JL SSNG1 3.63] (Eterna round: R96, puzzle: Same State NG 2)”, the “apparent KD of MS2 coat protein” value amounted to 22.7 nM (input ligand: FMN 200 uM), 18.9 nM under setting [1] and 30.6 nM (input ligand: none).
As to “CUUGCCCAGUCAGGAUAUGGGAAAGGAAGUGUACCAGAAGGGACAAGAAAGGACAUGAGGAUCACCCAUGUCGGGCAGGCGAGA [PowerStrip SSNG 1.23] (Eterna round: R96, puzzle: Same State NG 1)”, the “apparent KD of MS2 coat protein” value by setting is: (input ligand: FMN 200 uM) 32.8 nM; under setting [1], 82.3 nM; (input ligand: none) 97.1 nM.
The corresponding values for “GUGGUCAGACAUGAGGAUCACCCAUGUGGAAUAAAUAAGGGUCAGGAUAUGGAAUAUAGGAUAUACCAGAAGGGAUGGUUGGUG (Eterna round: R96, puzzle: Same State NG 3)” are 134 nM, 70.2 nM and 92.8 nM.
Turning to “GUGGUCAGACAUGAGGAUCACCCAUGUGGAAUAAAUAAGGACAAGGAUAUGGAAUAUAGGAUAUACCAGAAGGUGUGGUUGGUG (Eterna round: R96, puzzle: Same State NG 3)”, the “apparent KD of MS2 coat protein” value under setting [1] amounted to 67.5 nM.
In the case of “UACUUAGUGGUAGGAUAUGUAGGAUAUGGCGAGAGCUAAGCUUGGAAGUCACUUCAGCCAGAAGGACAGAAGGACCACUCUCUC [pwkr ssNG2 2FMN + F9.12] (Eterna round: R96, puzzle: Same State NG 2)”, the “apparent KD of MS2 coat protein” value reads like this: (input ligand: FMN 200 uM) 98 nM; under setting [1], 17.4 nM; (input ligand: none) 97.1 nM.
In the case of “CAAGCUUGGGUCGUCCCGCUCGUCUACAAACAUGAGGAUCACCCAUGUAAAAUCUAAAAUUCAAAUCUAUCUCUAAA [Getienre] (puzzle: Sensor for hsa-mir-208a)”, the “apparent KD of MS2 coat protein” value by setting is: under setting [2], 515 nM; under setting [3], 20.9 nM; under setting [4], 563 nM.
As to “UUGAAGAAUUAAGGAUAUUGAAUACAUAUGUUAAACAUGAGGAUCACCCAUGUGGGUUGCGGUAUCGAGAAGGUAAAUUACUAG [Mat - same State NG 2 - JL mod - D80] (Eterna round: R96, puzzle: Same State NG 2)”, under setting [1], the “apparent KD of MS2 coat protein” value is 60.1 nM.
On to “UGCAUACGCCUACAAGAGGAGUCCUGCAGACAUGAGGAUCACCCAUGUAACUCGAAUUCAGUUCGUUCGUCUGUCGU [JR_hsamir208a_Sub1412] (Eterna round: R96, puzzle: Sensor for hsa-mir-208a)”, for which the “apparent KD of MS2 coat protein” value (input ligand: FMN 200 uM) worked out at 57 nM, the “apparent KD of MS2 coat protein” value under setting [1] worked out at 33.9 nM and the “apparent KD of MS2 coat protein” value (input ligand: none) turned out to be 52.9 nM.
With “GGUCCAGCCUGAGCUGGACCGAAGCGUGUACAUGAGGAUCACCCAUGUCAUGUACAAGCUUUUUGCUCGUCUUAUUG [JL-shm-2.10 JL Mod] (puzzle: Sensor for hsa-mir-208a)”, the “apparent KD of MS2 coat protein” value runs as follows: under setting [2], 149 nM; under setting [3], 18.8 nM; under setting [4], 285 nM.
